From the MegaScale stability set (Tsuboyama et al. 2023)

B1: 2M8U (parent)
chain: TKAQVIEAFKVFDRDGNGYVTVDYLRKVLNELGDMMPADEIEEMIYEADPQNSGYVQYETFVGMLFL

Variants of: B1
Assay: folding stability dG (cDNA display proteolysis); higher = more stable
Conditions: PBS, room temperature

Row | Variant | folding stability dG
1 | TKAQVIEAFKVFDRDGNGYVTVDYLRKVLNELGDMMPADEIEEMIYEADPQNSGYVQYETFSGMLFL [V62S] | 2.36 kcal/mol
2 | TKAQVIEAFKVFDRDGNGYVTVDYLRKVLNELGDMMPADEIEEMIYEADPQNSGYVQYPTFVGMLFL [E59P] | 2.47 kcal/mol
3 | TKAQVIEAFKVFDRDGNGYVTVDYLRKVLNELGDMMPADEIEEMIYHADPQNSGYVQYETFVGMLFL [E47H] | 3.8 kcal/mol
4 | TKAQVIEAFKVFDRDGNGYVTVDYLRKVLNELGDMMPADEIEEMIYDADPQNSGYVQYETFVGMLFL [E47D] | 3.49 kcal/mol
5 | TKAQVIEAFKVFDRDGNGYVTVDYLRKVLNELGDMMPADEIEEMIYCADPQNSGYVQYETFVGMLFL [E47C] | 3.66 kcal/mol
6 | TKAQVIEAFKVFDRDGNGYVTVDYLRKPLNELGDMMPADEIEEMIYEADPQNSGYVQYETFVGMLFL [V28P] | 1.37 kcal/mol
7 | TKAQVIEAFMVFDRDGNGYVTVDYLRKVLNELGDMMPADEIEEMIYEADPQNSGYVQYETFVGMLFL [K10M] | 3.15 kcal/mol
8 | TKAQVIEAFKVFDRDGNGSVTVDYLRKVLNELGDMMPADEIEEMIYEADPQNSGYVQYETFVGMLFL [Y19S] | 2.9 kcal/mol
9 | TKAQVIEAFKVFDRDGNGLVTVDYLRKVLNELGDMMPADEIEEMIYEADPQNSGYVQYETFVGMLFL [Y19L] | 3.26 kcal/mol
10 | TKAQVIEAFKVFDRDGNGYVTVDYLRKVLNELGDMMPADEIEEMIYEMDPQNSGYVQYETFVGMLFL [A48M] | 3.28 kcal/mol
11 | TKAQVIEAFKVFDRDGNGYVTVDYLRKVLNELGDMMPADEIEEMIYEQDPQNSGYVQYETFVGMLFL [A48Q] | 3.37 kcal/mol
12 | TKAQVIEAFKVDDRDGNGYVTVDYLRKVLNELGDMMPADEIEEMIYEADPQNSGYVQYETFVGMLFL [F12D] | 2.69 kcal/mol
13 | TKAQVIEAFKVFDRDGNGYVTVDYLRKVLNELGDMMPADEIEEMIYEADPQCSGYVQYETFVGMLFL [N52C] | 3.42 kcal/mol
14 | TKAQVIEAFKVFDRDGNGYVTVDYLRKVLNELGDMMPADEIEEMIYEADPQESGYVQYETFVGMLFL [N52E] | 3.38 kcal/mol
15 | TKAQVIEAFKVFDRDGNGYVTVDYLRKVLNELGDMMPADEIEEMIYEADPQNSGYVQYETTVGMLFL [F61T] | 1.87 kcal/mol
16 | TKAQVIEAFKVFDRDGNGYVTVDYWRKVLNELGDMMPADEIEEMIYEADPQNSGYVQYETFVGMLFL [L25W] | 2.53 kcal/mol
17 | TKAQVIEAFKVFDRDGNGYVTVDYLRKVLNELGDMMPADEIEEMIYEADPQNSGYVQYETFVGWLFL [M64W] | 3.59 kcal/mol
18 | TKAQVIEAFKVFDRDGNGYVTVDGLRKVLNELGDMMPADEIEEMIYEADPQNSGYVQYETFVGMLFL [Y24G] | 3.47 kcal/mol
19 | TKAQVIEAVKVFDRDGNGYVTVDYLRKVLNELGDMMPADEIEEMIYEADPQNSGYVQYETFVGMLFL [F9V] | 3.27 kcal/mol
20 | TKAQVIEAGKVFDRDGNGYVTVDYLRKVLNELGDMMPADEIEEMIYEADPQNSGYVQYETFVGMLFL [F9G] | 2.1 kcal/mol

Row | Variant | folding stability dG
21 | TKAQVIEAFKVFDRDGNGYVTVDYLRKVLNELGDMMPADEIEEMIYEADPQNSGVVQYETFVGMLFL [Y55V] | 3.44 kcal/mol
22 | TKAQVIEAFKVFDRDGNGYVTVDYLRKVLNELGDMMPADEIEEMIYEADPQNSGYVQYETFVGMLPL [F66P] | 2.87 kcal/mol
23 | TKAQVIEAFKVFDRDWNGYVTVDYLRKVLNELGDMMPADEIEEMIYEADPQNSGYVQYETFVGMLFL [G16W] | 2.29 kcal/mol
24 | TKAQVIEAFKVFDRDGNGYVTVDYLRKVLNELGDMMPADEIEEMIYEADPQNSMYVQYETFVGMLFL [G54M] | 2.59 kcal/mol
25 | TKAQVIEAFKVFDRDGNGYVTVDYLRKVLNELGDMMPADEIEEMIYEADPQNSEYVQYETFVGMLFL [G54E] | 2.26 kcal/mol
26 | TKAQWIEAFKVFDRDGNGYVTVDYLRKVLNELGDMMPADEIEEMIYEADPQNSGYVQYETFVGMLFL [V5W] | 4.09 kcal/mol
27 | TKAQVIEAFKVFDRDGNGYVTVDYLRYVLNELGDMMPADEIEEMIYEADPQNSGYVQYETFVGMLFL [K27Y] | 3.43 kcal/mol
28 | TKAQVIEAFKVFDRDGNGYVTVDYLRKVLNELGDMMPADEIEEMIYEADPQNSGYVQYETFVGMKFL [L65K] | 1.94 kcal/mol
29 | TKAQVIEAFKVFDRDGNGYVTVDYLRKVLNELGDMMPADEIEEMIYEADPQNSGYVQYETFVGMAFL [L65A] | 2.23 kcal/mol
30 | TKAQVIEAFKFFDRDGNGYVTVDYLRKVLNELGDMMPADEIEEMIYEADPQNSGYVQYETFVGMLFL [V11F] | 3.01 kcal/mol
31 | TKAQVIEAFKVFDRDGNGYVTVWYLRKVLNELGDMMPADEIEEMIYEADPQNSGYVQYETFVGMLFL [D23W] | 3.66 kcal/mol
32 | TKAQVIEAFKVFDRDGNGYVTVDYLRKVLNELGDMEPADEIEEMIYEADPQNSGYVQYETFVGMLFL [M36E] | 2.77 kcal/mol
33 | TKAQVIEQFKVFDRDGNGYVTVDYLRKVLNELGDMMPADEIEEMIYEADPQNSGYVQYETFVGMLFL [A8Q] | 3.3 kcal/mol
34 | TKAQVIGAFKVFDRDGNGYVTVDYLRKVLNELGDMMPADEIEEMIYEADPQNSGYVQYETFVGMLFL [E7G] | 2.87 kcal/mol
35 | TKAQVIEAFKVFDRDGNGYVTVDYLRKVLNELGDMMSADEIEEMIYEADPQNSGYVQYETFVGMLFL [P37S] | 3.33 kcal/mol
36 | TKTQVIEAFKVFDRDGNGYVTVDYLRKVLNELGDMMPADEIEEMIYEADPQNSGYVQYETFVGMLFL [A3T] | 3.14 kcal/mol
37 | TKAQVIEAFKVFDRDGEGYVTVDYLRKVLNELGDMMPADEIEEMIYEADPQNSGYVQYETFVGMLFL [N17E] | 3.08 kcal/mol
38 | TKAQVIEAFKVFDRDGGGYVTVDYLRKVLNELGDMMPADEIEEMIYEADPQNSGYVQYETFVGMLFL [N17G] | 2.96 kcal/mol
39 | TKAQVIEAFKVFDRDGNGYVTVDYLRKVLNELGDRMPADEIEEMIYEADPQNSGYVQYETFVGMLFL [M35R] | 3.02 kcal/mol
40 | TKAQVIEAFKVFDRDGNGYVTVDYLVKVLNELGDMMPADEIEEMIYEADPQNSGYVQYETFVGMLFL [R26V] | 3.11 kcal/mol
